Laboratory results taken from US20090042248.

How the values were obtained:
[1] = target: T1, C1r CCP2-SP S654A, P00736
T1 chain: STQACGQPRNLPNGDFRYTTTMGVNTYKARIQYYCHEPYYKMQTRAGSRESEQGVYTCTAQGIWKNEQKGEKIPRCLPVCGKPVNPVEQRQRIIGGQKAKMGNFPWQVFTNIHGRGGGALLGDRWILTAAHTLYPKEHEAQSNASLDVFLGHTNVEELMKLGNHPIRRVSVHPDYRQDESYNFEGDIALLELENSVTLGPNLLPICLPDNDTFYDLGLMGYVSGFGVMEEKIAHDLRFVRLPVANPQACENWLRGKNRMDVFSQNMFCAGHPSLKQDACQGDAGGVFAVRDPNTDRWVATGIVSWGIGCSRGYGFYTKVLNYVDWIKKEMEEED

Proenzyme C1s, P09871 = target: T2, Proenzyme C1s, P09871
T2 chain: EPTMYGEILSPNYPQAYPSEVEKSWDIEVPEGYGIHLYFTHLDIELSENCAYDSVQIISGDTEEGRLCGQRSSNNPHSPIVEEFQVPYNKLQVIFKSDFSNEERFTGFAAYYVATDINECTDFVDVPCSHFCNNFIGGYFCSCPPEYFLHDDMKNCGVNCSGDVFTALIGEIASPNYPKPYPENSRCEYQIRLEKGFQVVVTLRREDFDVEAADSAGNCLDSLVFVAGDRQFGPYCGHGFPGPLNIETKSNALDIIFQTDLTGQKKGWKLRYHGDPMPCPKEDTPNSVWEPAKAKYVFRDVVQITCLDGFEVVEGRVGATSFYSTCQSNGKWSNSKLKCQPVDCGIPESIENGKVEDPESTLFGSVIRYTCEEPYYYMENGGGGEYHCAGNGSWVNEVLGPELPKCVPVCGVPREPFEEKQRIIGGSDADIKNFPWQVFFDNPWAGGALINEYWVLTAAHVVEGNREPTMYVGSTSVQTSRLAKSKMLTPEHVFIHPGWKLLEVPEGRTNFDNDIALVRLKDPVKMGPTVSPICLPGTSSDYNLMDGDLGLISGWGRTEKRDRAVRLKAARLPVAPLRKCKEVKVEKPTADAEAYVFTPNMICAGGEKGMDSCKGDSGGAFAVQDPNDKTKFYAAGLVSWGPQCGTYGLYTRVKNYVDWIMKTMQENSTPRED

[2] = target: 'live' C3 (C3 with an intact thiol ester bond), P01024
'live' C3 (C3 with an intact thiol ester bond), P01024, sequence (P01024 whole entry, looked up): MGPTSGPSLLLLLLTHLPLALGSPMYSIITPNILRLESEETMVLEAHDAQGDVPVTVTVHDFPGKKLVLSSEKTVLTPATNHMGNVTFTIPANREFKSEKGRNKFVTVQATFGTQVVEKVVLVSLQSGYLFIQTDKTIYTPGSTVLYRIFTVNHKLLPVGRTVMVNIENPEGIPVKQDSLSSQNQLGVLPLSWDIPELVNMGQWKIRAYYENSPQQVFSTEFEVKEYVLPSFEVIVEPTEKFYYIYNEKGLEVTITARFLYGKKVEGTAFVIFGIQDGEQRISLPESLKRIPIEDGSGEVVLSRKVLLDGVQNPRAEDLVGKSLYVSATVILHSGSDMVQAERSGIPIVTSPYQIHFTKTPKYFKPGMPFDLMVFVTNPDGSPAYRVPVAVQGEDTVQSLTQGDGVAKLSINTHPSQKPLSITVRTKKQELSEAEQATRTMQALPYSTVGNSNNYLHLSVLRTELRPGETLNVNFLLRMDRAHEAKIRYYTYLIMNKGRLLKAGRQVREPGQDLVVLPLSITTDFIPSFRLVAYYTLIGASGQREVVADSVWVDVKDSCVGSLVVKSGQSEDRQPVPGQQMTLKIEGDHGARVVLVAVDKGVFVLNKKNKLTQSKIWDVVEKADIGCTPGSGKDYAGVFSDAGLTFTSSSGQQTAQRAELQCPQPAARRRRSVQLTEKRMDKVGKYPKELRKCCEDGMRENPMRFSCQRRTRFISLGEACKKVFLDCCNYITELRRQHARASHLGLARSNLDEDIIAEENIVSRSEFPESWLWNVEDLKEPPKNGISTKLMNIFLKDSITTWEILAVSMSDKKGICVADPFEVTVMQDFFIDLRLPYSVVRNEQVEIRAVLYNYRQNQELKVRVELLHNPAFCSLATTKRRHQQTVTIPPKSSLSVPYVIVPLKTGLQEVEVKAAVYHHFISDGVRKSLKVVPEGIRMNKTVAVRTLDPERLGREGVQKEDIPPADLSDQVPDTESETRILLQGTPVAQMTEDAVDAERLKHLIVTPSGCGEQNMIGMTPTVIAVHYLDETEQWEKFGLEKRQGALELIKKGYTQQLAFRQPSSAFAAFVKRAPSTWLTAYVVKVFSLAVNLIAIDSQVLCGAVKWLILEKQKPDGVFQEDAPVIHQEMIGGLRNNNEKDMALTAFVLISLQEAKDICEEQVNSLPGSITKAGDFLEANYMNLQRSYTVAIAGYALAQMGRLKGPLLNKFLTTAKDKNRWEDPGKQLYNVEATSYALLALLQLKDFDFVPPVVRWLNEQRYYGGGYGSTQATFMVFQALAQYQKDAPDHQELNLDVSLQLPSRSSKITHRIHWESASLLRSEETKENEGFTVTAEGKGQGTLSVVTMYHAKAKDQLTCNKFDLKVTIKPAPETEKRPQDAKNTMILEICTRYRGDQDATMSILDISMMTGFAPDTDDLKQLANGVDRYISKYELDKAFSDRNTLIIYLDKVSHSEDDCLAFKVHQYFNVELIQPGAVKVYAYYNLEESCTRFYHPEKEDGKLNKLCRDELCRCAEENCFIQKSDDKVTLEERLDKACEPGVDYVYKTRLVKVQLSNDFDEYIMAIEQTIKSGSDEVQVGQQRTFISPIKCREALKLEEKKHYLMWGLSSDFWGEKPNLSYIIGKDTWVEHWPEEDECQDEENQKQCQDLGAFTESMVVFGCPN

C1r SP S654A, P00736 = target: T3, C1r SP S654A, P00736
T3 chain: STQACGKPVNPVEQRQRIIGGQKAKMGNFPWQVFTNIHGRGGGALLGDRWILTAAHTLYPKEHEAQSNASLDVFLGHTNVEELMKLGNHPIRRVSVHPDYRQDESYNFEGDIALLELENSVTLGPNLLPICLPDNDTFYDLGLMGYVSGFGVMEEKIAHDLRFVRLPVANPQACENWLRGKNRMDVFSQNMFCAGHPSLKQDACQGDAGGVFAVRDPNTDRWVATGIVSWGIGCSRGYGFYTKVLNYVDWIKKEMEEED

[3] = target: T4, C1r CCP1-CCP2-SP S654A, P00736
T4 chain: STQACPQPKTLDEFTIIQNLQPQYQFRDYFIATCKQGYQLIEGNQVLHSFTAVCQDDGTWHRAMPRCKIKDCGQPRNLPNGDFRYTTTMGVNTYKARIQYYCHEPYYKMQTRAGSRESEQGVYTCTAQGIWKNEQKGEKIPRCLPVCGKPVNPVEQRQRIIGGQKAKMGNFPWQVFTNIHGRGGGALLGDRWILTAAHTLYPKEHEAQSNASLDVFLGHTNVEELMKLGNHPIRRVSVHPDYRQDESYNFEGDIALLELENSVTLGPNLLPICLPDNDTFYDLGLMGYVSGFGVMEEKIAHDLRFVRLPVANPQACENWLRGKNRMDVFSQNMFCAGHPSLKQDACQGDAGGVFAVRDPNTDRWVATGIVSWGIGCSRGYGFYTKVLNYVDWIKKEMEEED

Human C2, P06681 = target: T5, Human C2, P06681
T5 chain: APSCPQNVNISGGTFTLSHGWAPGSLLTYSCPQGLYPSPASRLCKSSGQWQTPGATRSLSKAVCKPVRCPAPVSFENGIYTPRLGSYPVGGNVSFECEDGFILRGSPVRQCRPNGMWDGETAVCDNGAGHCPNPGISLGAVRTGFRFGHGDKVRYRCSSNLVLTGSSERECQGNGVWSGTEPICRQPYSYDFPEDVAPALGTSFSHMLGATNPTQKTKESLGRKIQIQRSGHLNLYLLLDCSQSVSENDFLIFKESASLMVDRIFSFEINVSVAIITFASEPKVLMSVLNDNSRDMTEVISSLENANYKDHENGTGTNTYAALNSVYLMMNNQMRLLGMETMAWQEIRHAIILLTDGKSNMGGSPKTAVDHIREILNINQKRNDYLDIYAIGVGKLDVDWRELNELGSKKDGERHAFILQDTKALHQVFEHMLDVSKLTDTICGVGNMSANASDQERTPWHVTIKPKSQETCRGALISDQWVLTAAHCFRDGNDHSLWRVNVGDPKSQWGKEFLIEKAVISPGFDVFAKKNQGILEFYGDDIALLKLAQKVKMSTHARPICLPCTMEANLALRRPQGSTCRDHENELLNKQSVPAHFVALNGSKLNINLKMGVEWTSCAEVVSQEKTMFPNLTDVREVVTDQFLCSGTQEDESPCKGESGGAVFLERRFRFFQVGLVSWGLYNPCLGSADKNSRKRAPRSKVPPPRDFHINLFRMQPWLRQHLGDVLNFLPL

[4] = target: T6, alpha-2-macroglobulin, P01023
T6 chain: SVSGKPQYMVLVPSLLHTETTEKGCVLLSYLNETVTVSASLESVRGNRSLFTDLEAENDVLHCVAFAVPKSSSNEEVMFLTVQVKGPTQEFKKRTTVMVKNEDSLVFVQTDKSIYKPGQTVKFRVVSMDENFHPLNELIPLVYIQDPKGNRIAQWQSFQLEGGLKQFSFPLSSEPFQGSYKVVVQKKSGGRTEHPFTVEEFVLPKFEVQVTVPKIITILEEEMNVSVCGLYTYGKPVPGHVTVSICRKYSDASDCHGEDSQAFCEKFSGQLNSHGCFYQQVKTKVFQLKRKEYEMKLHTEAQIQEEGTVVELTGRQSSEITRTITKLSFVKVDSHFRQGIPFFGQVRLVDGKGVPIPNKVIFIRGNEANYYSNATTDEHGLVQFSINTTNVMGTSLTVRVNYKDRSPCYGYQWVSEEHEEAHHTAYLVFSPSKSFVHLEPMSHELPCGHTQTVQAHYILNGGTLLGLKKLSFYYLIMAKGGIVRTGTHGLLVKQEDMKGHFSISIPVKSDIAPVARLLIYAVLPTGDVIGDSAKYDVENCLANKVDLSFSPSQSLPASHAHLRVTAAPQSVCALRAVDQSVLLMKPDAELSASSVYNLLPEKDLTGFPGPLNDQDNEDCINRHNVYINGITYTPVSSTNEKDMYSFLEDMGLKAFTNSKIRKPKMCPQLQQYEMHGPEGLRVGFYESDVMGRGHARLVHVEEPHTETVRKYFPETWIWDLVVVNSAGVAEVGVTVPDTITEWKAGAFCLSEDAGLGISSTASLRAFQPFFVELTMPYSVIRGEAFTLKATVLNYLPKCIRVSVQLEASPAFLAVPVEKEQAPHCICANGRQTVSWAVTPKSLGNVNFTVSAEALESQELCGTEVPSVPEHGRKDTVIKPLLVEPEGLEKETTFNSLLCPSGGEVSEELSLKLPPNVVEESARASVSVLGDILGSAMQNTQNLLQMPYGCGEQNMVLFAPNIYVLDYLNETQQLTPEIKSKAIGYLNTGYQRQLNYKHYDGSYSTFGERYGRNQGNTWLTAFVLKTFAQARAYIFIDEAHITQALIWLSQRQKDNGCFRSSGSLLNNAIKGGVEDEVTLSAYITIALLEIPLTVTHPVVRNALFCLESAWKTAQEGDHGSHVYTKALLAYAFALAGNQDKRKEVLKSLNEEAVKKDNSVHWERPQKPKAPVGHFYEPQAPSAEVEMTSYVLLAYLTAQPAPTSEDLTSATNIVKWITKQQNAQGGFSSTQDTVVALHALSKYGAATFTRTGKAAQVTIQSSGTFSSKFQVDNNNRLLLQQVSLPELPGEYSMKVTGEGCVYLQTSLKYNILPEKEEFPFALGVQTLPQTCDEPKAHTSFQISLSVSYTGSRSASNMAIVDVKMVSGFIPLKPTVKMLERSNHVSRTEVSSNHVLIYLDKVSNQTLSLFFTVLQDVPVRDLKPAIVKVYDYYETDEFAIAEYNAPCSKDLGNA

Human C4, P0C0L4, sequence (P0C0L4 whole entry, looked up, the tested form may be a part): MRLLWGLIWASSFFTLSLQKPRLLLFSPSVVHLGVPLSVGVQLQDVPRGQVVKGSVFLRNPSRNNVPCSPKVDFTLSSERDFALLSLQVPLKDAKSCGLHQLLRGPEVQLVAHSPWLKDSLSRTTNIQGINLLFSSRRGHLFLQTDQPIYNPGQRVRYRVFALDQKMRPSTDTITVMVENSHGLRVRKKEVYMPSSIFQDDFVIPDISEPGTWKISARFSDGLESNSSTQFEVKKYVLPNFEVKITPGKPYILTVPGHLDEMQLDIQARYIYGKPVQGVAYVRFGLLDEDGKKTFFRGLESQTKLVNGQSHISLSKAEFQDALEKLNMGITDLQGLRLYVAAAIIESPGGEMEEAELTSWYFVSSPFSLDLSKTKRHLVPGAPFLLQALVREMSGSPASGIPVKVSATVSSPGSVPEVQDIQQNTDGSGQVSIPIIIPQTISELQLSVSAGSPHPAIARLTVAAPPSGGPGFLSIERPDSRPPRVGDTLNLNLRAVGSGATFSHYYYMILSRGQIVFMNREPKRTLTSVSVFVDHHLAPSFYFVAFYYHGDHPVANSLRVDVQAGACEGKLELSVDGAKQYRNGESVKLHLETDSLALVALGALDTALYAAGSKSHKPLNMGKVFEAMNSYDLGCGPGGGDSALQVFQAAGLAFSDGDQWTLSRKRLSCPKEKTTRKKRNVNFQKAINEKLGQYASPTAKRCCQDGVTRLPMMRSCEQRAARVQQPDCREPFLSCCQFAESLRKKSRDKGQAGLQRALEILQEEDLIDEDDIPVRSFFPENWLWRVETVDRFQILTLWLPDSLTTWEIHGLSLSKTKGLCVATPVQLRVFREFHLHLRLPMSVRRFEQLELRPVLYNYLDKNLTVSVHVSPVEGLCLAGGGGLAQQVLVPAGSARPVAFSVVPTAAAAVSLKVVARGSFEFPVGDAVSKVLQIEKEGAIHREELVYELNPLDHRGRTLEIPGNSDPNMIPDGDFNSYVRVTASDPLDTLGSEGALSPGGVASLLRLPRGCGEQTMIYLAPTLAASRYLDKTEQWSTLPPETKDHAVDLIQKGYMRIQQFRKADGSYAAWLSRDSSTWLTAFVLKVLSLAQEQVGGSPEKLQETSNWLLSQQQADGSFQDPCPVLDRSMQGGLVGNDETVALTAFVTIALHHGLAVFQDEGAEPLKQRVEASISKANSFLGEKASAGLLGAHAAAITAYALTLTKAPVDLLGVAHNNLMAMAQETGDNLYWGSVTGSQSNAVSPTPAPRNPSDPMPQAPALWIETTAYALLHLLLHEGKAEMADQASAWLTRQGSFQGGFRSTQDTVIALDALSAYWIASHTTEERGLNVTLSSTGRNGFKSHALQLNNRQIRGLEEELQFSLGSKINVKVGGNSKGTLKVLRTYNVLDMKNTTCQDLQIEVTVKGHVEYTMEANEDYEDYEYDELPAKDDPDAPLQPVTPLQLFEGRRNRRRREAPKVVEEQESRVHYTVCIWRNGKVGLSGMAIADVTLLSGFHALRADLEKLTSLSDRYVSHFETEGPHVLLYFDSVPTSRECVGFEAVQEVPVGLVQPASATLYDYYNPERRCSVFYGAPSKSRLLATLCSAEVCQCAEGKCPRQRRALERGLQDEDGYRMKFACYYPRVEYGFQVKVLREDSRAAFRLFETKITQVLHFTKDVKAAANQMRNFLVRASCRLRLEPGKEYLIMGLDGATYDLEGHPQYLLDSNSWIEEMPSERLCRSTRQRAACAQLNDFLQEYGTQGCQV
'dead' C3(NH3), P01024, sequence (P01024 whole entry, looked up, the tested form may be a part): as the sequence (P01024 whole entry, looked up) above

Protein	kcat/KM, cleavage of S654A zymogen [1] [s^-1M^-1]	kcat/KM, C1s cleavage (Proenzyme C1s, P09871) [s^-1M^-1]	cleavage of 'live' C3 (control) [2]	kcat/KM, cleavage of S654A zymogen (C1r SP S654A, P00736) [s^-1M^-1]	cleavage of 'dead' C3 (control) ('dead' C3(NH3), P01024)	kcat/KM, cleavage of S654A zymogen [3] [s^-1M^-1]	KM, C4 cleavage (Human C4, P0C0L4) [µM]	fold increase in the kcat/KM value of C4 cleavage against the SP domain alone (Human C4, P0C0L4)	kcat, C4 cleavage (Human C4, P0C0L4) [s⁻¹]	kcat/KM, C4 cleavage (Human C4, P0C0L4) [M⁻¹ s⁻¹]	KM, C2 cleavage (Human C2, P06681) [µM]	kcat, C2 cleavage (Human C2, P06681) [s⁻¹]	kcat/KM, C2 cleavage (Human C2, P06681) [M⁻¹ s⁻¹]	molar excess needed to abolish cleavage of complement substrates [4]
C1r CCP1-CCP2-SP fragment (wild-type) (protein) chain 1: STQACPQPKTLDEFTIIQNLQPQYQFRDYFIATCKQGYQLIEGNQVLHSFTAVCQDDGTWHRAMPRCKIKDCGQPRNLPNGDFRYTTTMGVNTYKARIQYYCHEPYYKMQTRAGSRESEQGVYTCTAQGIWKNEQKGEKIPRCLPVCGKPVNPVEQRQR chain 2: IIGGQKAKMGNFPWQVFTNIHGRGGGALLGDRWILTAAHTLYPKEHEAQSNASLDVFLGHTNVEELMKLGNHPIRRVSVHPDYRQDESYNFEGDIALLELENSVTLGPNLLPICLPDNDTFYDLGLMGYVSGFGVMEEKIAHDLRFVRLPVANPQACENWLRGKNRMDVFSQNMFCAGHPSLKQDACQGDSGGVFAVRDPNTDRWVATGIVSWGIGCSRGYGFYTKVLNYVDWIKKEMEEED	15900	58000	we observed no cleavages of either 'live' or 'dead' C3	45000	we observed no cleavages of either 'live' or 'dead' C3	6200								
C1r CCP2-SP fragment (wild-type) (protein) chain 1: STQACGQPRNLPNGDFRYTTTMGVNTYKARIQYYCHEPYYKMQTRAGSRESEQGVYTCTAQGIWKNEQKGEKIPRCLPVCGKPVNPVEQRQR chain 2: IIGGQKAKMGNFPWQVFTNIHGRGGGALLGDRWILTAAHTLYPKEHEAQSNASLDVFLGHTNVEELMKLGNHPIRRVSVHPDYRQDESYNFEGDIALLELENSVTLGPNLLPICLPDNDTFYDLGLMGYVSGFGVMEEKIAHDLRFVRLPVANPQACENWLRGKNRMDVFSQNMFCAGHPSLKQDACQGDSGGVFAVRDPNTDRWVATGIVSWGIGCSRGYGFYTKVLNYVDWIKKEMEEED	130000	208000		68000		74000								
C1r SP fragment (wild-type) (protein) chain 1: STQACGKPVNPVEQRQR chain 2: IIGGQKAKMGNFPWQVFTNIHGRGGGALLGDRWILTAAHTLYPKEHEAQSNASLDVFLGHTNVEELMKLGNHPIRRVSVHPDYRQDESYNFEGDIALLELENSVTLGPNLLPICLPDNDTFYDLGLMGYVSGFGVMEEKIAHDLRFVRLPVANPQACENWLRGKNRMDVFSQNMFCAGHPSLKQDACQGDSGGVFAVRDPNTDRWVATGIVSWGIGCSRGYGFYTKVLNYVDWIKKEMEEED	75000	28000		71000		72000								
MASP-2 CCP2-SP fragment (protein) chain 1: ASMTIVDCGPPDDLPSGRVEYITGPGVTTYKAVIQYSCEETFYTMKVNDGKYVCEADGFWTSSKGEKSLPVCEPVCGLSARTTGGR chain 2: IYGGQKAKPGDFPWQVLILGGTTAAGALLYDNWVLTAAHAVYEQKHDASALDIRMGTLKRLSPHYTQAWSEAVFIHEGYTHDAGFDNDIALIKLNNKVVINSNITPICLPRKEAESFMRTDDIGTASGWGLTQRGFLARNLMYVDIPIVDHQKCTAAYEKPPYPRGSVTANMLCAGLESGGKDSCRGDSGGALVFLDSETERWFVGGIVSWGSMNCGEAGQYGVYTKVINYIPWIENIISDF							0.4	a 44-fold increase in the kcat/KM value	2	5.7e+06	2.7	3	1.3e+06	or with a large molar excess (40 fold) of alpha-2-macroglobulin
MASP-2 SP fragment (protein) chain 1: ASMTPVCGLSARTTGGR chain 2: IYGGQKAKPGDFPWQVLILGGTTAAGALLYDNWVLTAAHAVYEQKHDASALDIRMGTLKRLSPHYTQAWSEAVFIHEGYTHDAGFDNDIALIKLNNKVVINSNITPICLPRKEAESFMRTDDIGTASGWGLTQRGFLARNLMYVDIPIVDHQKCTAAYEKPPYPRGSVTANMLCAGLESGGKDSCRGDSGGALVFLDSETERWFVGGIVSWGSMNCGEAGQYGVYTKVINYIPWIENIISDF							2		0.2	130000	3.2	3.9	2.5e+06	or with a large molar excess (40 fold) of alpha-2-macroglobulin
